According to patent US20200339678A1 (RIGEL PHARMACEUTICALS, published 2020):

T1: human TIGIT fused to a beta galactosidase portion, on YTS cells (YTS_hTIGIT/hGrb2) (human, UniProt Q495A1 22-244)
T1 sequence (looked up): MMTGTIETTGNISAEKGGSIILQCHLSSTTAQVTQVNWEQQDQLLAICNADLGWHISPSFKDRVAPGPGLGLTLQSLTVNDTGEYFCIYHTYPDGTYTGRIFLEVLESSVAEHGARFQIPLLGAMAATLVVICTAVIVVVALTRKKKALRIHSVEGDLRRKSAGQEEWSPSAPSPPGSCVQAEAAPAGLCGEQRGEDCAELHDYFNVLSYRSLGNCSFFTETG

T2: His-tagged recombinant Human TIGIT (human, UniProt Q495A1 22-141)
T2 construct: also called VSIG9; VSTM3; not shown: His tag
T2 sequence (looked up): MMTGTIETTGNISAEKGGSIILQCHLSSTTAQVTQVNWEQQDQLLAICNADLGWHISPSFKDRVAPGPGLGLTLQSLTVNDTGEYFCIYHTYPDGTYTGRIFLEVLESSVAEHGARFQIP

T3: His-tagged recombinant Mouse TIGIT (mouse, UniProt P86176 29-148, limits assumed)
T3 construct: not shown: His tag
T3 sequence (looked up): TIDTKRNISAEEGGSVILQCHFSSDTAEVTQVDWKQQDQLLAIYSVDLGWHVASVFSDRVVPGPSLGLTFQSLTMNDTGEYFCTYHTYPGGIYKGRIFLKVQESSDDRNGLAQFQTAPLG


Tests used:
[1] = biological target: T1, human TIGIT fused to a beta …; test: cell-based or functional assay
[2] = biological target: T2, His-tagged recombinant Human TIGIT; test: ELISA, coated His-tagged human TIGIT
Description: (§1) Binding affinities for antigen binding to anti-TIGIT monoclonal antibodies were determined by ELISA. […] Antibodies to be tested were diluted to 1 μM in PBS buffer containing 1% BSA and diluted 3-fold in a 10-point curve. […] Detection of the secondary antibody was determined using streptavidin-HRP and TMB reagent. All assays were performed at room temperature. Curve-fitting software was used to determine the EC₅₀ for each antibody.

[3] = biological target: T3, His-tagged recombinant Mouse TIGIT; test: ELISA, coated His-tagged mouse TIGIT
Description: as §1

Row | YTS_hTIGI/hGrbs_EFC_Agonism, 221_WT [1] [µM] | YTS_hTIGI/hGrbs_EFC_Antagonism, 221_hPVR/ICAM [1] [µM] | EC50 [2] [nM] | EC50 [3] [nM] | Binder
1 | 0.0091 | > 1 |  |  | Ab1i1 (antibody, V domains shown) VH: EVQLLESGGGLVQPGGSLRLSCAASGFTFSSYAMHWVRQAPGKGLEWVSGISSNGGSTSYADSVKGRFTISRDNSKNTLYLQMNSLRAEDTAVYYCARVPYSVWIDYWGQGTLVTVSS VL: not shown
2 | > 1 | 0.172 |  |  | Ab1i3 (antibody, V domains shown) VH: EVQLLESGGGLVQPGGSLRLSCAASGFTFSSYAMHWVRQAPGKGLEWVSGISSNGGSTSYADSVKGRFTISRDNSKNTLYLQMNSLRAEDTAVYYCARVPYSVWIDYWGQGTLVTVSS VL: not shown
3 |  |  | 87.7 | 13.9 | Ab153 (Fab, V domains shown, ARV set) VH: EVQLLESGGGLVQPGGSLRLSCAASGFTFSSYSMHWVRQAPGKGLEWVSSINSNAGTISYADSVKGRFTISRDNSKNTLYLQMNSLRAEDTAVYYCARVPYDYWIDYWGQGTLVTVSS VL: not shown
4 |  |  | 40.3 | 181 | Ab1 (Fab, V domains shown, ARV set; also called clone Ab1) VH: EVQLLESGGGLVQPGGSLRLSCAASGFTFSSYAMHWVRQAPGKGLEWVSGISSNGGSTSYADSVKGRFTISRDNSKNTLYLQMNSLRAEDTAVYYCARVPYSVWIDYWGQGTLVTVSS VL: not shown
5 |  |  | 5.2 | 39.3 | Ab175 (Fab, V domains shown, ARV set) VH: EVQLLESGGGLVQPGGSLRLSCAASGFTFSSYSMHWVRQAPGKGLEWVSAINSNAGSSSYADSVKGRFTISRDNSKNTLYLQMNSLRAEDTAVYYCARVPYGVWMDYWGQGTLVTVSS VL: not shown
6 |  |  | 34.3 | 14.1 | Ab124 (Fab, V domains shown, ARV set) VH: EVQLLESGGGLVQPGGSLRLSCAASGFTFSSYSMHWVRQAPGKGLEWVASIKGSASYSYYADSVKGRFTISRDNSKNTLYLQMNSLRAEDTAVYYCARVPYDYWMDYWGQGTLVTVSS VL: not shown
7 |  |  | 357 | 100 | Ab95 (Fab, V domains shown, ARE set) VH: EVQLLESGGGLVQPGGSLRLSCAASGFTFSSYAMSWVRQAPGKGLEWVASIKSSTGYIGYADSVKGRFTISRDNSKNTLYLQMNSLRAEDTAVYYCAREPYSYWLDYWGQGTLVTVSS VL: not shown
8 |  |  | 14.6 | 11.5 | Ab7 (Fab, V domains shown, ARE set) VH: EVQLLESGGGLVQPGGSLRLSCAASGFTFSSYAMSWVRQAPGKGLEWVASIKSSSSSISYADSVKGRFTISRDNSKNTLYLQMNSLRAEDTAVYYCAREPYSYWLDYWGQGTLVTVSS VL: not shown
9 |  |  | 12.8 | 228 | Ab165 (Fab, V domains shown, ARE set) VH: EVQLLESGGGLVQPGGSLRLSCAASGFTFSSYAMSWVRQAPGKGLEWVAAIKSSTGTIYYADSVKGRFTISRDNSKNTLYLQMNSLRAEDTAVYYCAREPYSVWLDYWGQGTLVTVSS VL: not shown
10 |  |  | 81.7 | 235 | Ab72 (Fab, V domains shown, ARV set) VH: EVQLLESGGGLVQPGGSLRLSCAASGFTFSSYSMHWVRQAPGKGLEWVAAIKSDAGTSGYADSVKGRFTISRDNSKNTLYLQMNSLRAEDTAVYYCARVPYDYWIDYWGQGTLVTVSS VL: not shown
11 |  |  | 27.6 | 58 | Ab49 (Fab, V domains shown, ARG set) VH: EVQLLESGGGLVQPGGSLRLSCAASGFTFSSYSMHWVRQAPGKGLEWVASIKSSGGYKSYADSVKGRFTISRDNSKNTLYLQMNSLRAEDTAVYYCARGPYDVWIDYWGQGTLVTVSS VL: not shown
12 |  |  | 68.1 | 65.7 | Ab76 (Fab, V domains shown, ARV set) VH: EVQLLESGGGLVQPGGSLRLSCAASGFTFDSYSMHWVRQAPGKGLEWVSAISGSGGSTYYADSVKGRFTISRDNSKNTLYLQMNSLRAEDTAVYYCARVPYSVWIDYWGQGTLVTVSS VL: not shown
13 |  |  | 11 | 9.5 | Ab41 (Fab, V domains shown, ARV set) VH: EVQLLESGGGLVQPGGSLRLSCAASGFTFSSYSMHWVRQAPGKGLEWVASIKSSGGYISYADSVKGRFTISRDNSKNTLYLQMNSLRAEDTAVYYCARVPYDYWMDYWGQGTLVTVSS VL: not shown
14 |  |  | 19.8 | 64.8 | Ab19 (Fab, V domains shown, ARE set) VH: EVQLLESGGGLVQPGGSLRLSCAASGFTFSSYSMSWVRQAPGKGLEWVANIKSNSGYTYYADSVKGRFTISRDNSKNTLYLQMNSLRAEDTAVYYCAREPYSVWLDYWGQGTLVTVSS VL: not shown
15 |  |  | 7.2 | 331 | Ab131 (Fab, V domains shown, ARV set) VH: EVQLLESGGGLVQPGGSLRLSCAASGFTFSSYAMSWVRQAPGKGLEWVSDIKSSAGSTSYADSVKGRFTISRDNSKNTLYLQMNSLRAEDTAVYYCARVPYSVWIDYWGQGTLVTVSS VL: not shown
16 |  |  | 34.9 | 361 | Ab47 (Fab, V domains shown, ARG set) VH: EVQLLESGGGLVQPGGSLRLSCAASGFTFSSYSMNWVRQAPGKGLEWVASIKSSSSYTSYADSVKGRFTISRDNSKNTLYLQMNSLRAEDTAVYYCARGPYDTWLDYWGQGTLVTVSS VL: not shown
17 |  |  | 4.3 | 14.7 | Ab32 (Fab, V domains shown, ARV set) VH: EVQLLESGGGLVQPGGSLRLSCAASGFTFSSYSMHWVRQAPGKGLEWVANINSNGGNTGYADSVKGRFTISRDNSKNTLYLQMNSLRAEDTAVYYCARVPYDVWMDYWGQGTLVTVSS VL: not shown
18 |  |  | 81.7 | 101 | Ab185 (Fab, V domains shown, ARE set) VH: EVQLLESGGGLVQPGGSLRLSCAASGFTFSSYAMSWVRQAPGKGLEWVAAIKSNAGSSYYADSVKGRFTISRDNSKNTLYLQMNSLRAEDTAVYYCAREPYSYWLDYWGQGTLVTVSS VL: not shown
19 |  |  | 289 | 74.4 | Ab23 (Fab, V domains shown, ARE set) VH: EVQLLESGGGLVQPGGSLRLSCAASGFTFSSYAMSWVRQAPGKGLEWVARINSDSSNTYYADSVKGRFTISRDNSKNTLYLQMNSLRAEDTAVYYCAREPYSYWLDYWGQGTLVTVSS VL: not shown
20 |  |  | 168 | 16.4 | Ab148 (Fab, V domains shown, ARV set) VH: EVQLLESGGGLVQPGGSLRLSCAASGFTFSSYSMSWVRQAPGKGLEWVASIKGSAGYIYYADSVKGRFTISRDNSKNTLYLQMNSLRAEDTAVYYCARVPYDYWMDYWGQGTLVTVSS VL: not shown
21 |  |  | 11.1 | 81.4 | Ab197 (Fab, V domains shown, ARV set) VH: EVQLLESGGGLVQPGGSLRLSCAASGFTFSSYSMHWVRQAPGKGLEWVAYIKGSAGSTSYADSVKGRFTISRDNSKNTLYLQMNSLRAEDTAVYYCARVPYGVWMDYWGQGTLVTVSS VL: not shown
22 |  |  | 232 | 50.4 | Ab145 (Fab, V domains shown, ARE set) VH: EVQLLESGGGLVQPGGSLRLSCAASGFTFSSYAMSWVRQAPGKGLEWVASISSSTGYTSYADSVKGRFTISRDNSKNTLYLQMNSLRAEDTAVYYCAREPYSYWLDYWGQGTLVTVSS VL: not shown
23 |  |  | 153 | 110 | Ab169 (Fab, V domains shown, ARV set) VH: EVQLLESGGGLVQPGGSLRLSCAASGFTFSSYSMHWVRQAPGKGLEWVASIKSDTSSTYYADSVKGRFTISRDNSKNTLYLQMNSLRAEDTAVYYCARVPYDYWIDYWGQGTLVTVSS VL: not shown
24 |  |  | 8.2 | 95 | Ab46 (Fab, V domains shown, ARV set) VH: EVQLLESGGGLVQPGGSLRLSCAASGFTFSSYSMHWVRQAPGKGLEWVAGIWSSGGTTSYADSVKGRFTISRDNSKNTLYLQMNSLRAEDTAVYYCARVPYGVWMDYWGQGTLVTVSS VL: not shown
25 |  |  | 177 | 41.9 | Ab74 (Fab, V domains shown, ARV set) VH: EVQLLESGGGLVQPGGSLRLSCAASGFTFSSYSMHWVRQAPGKGLEWVASISSNAGTTGYADSVKGRFTISRDNSKNTLYLQMNSLRAEDTAVYYCARVPYDYWIDYWGQGTLVTVSS VL: not shown
26 |  |  | 165 | 116 | Ab157 (Fab, V domains shown, ARV set) VH: EVQLLESGGGLVQPGGSLRLSCAASGFTFSSYSMNWVRQAPGKGLEWVASINSNAGSTYYADSVKGRFTISRDNSKNTLYLQMNSLRAEDTAVYYCARVPYDYWMDYWGQGTLVTVSS VL: not shown
